Data taken from patent US20090181019A1.

Biological target: IL-1 receptor (human) (UniProt P14778)
Test: cell-based or functional assay

UniProt P14778, sequence (P14778 18-569): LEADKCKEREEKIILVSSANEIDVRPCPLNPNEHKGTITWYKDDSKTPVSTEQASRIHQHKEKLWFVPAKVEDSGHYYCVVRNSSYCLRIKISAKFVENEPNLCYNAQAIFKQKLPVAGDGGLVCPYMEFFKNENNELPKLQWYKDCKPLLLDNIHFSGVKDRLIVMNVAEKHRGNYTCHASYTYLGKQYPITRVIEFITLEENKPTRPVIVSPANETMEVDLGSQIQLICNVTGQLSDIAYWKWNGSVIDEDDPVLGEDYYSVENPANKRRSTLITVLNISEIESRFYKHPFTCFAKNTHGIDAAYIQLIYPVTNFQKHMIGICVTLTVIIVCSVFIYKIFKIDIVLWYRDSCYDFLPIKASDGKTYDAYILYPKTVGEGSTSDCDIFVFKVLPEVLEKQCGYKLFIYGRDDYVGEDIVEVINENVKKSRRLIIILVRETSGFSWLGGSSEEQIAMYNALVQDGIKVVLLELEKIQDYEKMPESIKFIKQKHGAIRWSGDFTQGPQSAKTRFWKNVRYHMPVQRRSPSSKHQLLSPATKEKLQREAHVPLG

Kineret® (anakinra) (from UniProt P18510 26-177) (ligand)
IC50, inhibition of IL-1β stimulated release of IL-8 in human whole blood (100 pM rhIL-1β, IL-8 ELISA): 53.4 pM
